Twelve substances from patent publication US9017992 can be followed below.

The target in assay [1] is Human CD68 (human) (UniProt P34810). In words: IHC on multi-block FFPE tissue, primary 1:800, K5007 reference.
The target is the same in assay [2]. The experiment in a line: IHC on multi-block FFPE tissue, primary 1:800, PNA system (D12102 + D12094).
Assay [3] deals with mouse anti-human BCL2 oncoprotein, Clone 124 (DakoCytomation code No. M0887). The experiment in a line: IHC on FFPE tonsil: unconjugated M0887 1:100 (0.015 uM) on tissue, then K5007 GaM:HRP 30 min.
In assay [4] the target is Human Cytokeratin (human). In words: IHC on multi-block FFPE tissue, primary 1:900, K5007 reference.
The target in assay [5] is Human Cytokeratin (human). In words: IHC on FFPE tonsil, primary 1:900, EnVision-based detection K5007.
The target of assay [6] is Human Cytokeratin (human). In words: IHC on FFPE tonsil, primary 1:900, PNA based detection (D12102 + D12094).
The target of assay [7] is Human Cytokeratin (human). In words: IHC on FFPE tonsil, primary 1:1600, PNA based detection (D12102 + D12094).
For assay [8], the target named is Human Cytokeratin (human). The experiment in a line: IHC on multi-block FFPE tissue, primary 1:900, PNA system (D12102 + D12094).
The target of assay [9] is Human Cytokeratin (human). The experiment in a line: Double IHC on multi tissue sections, M3515 1:50, GaM-dex-PNA1 + PNA2-dex-HRP, DAB+.
Assay [10] addresses Human Cytokeratin (human). The experiment in a line: Double IHC on multi tissue sections, M3515 1:50, GaM-dex-PNA1 (209-149) + PNA2-dex-HRP (209-157), detection method 1.
Assay [11] addresses Human Cytokeratin (human). In words: Double IHC on multi tissue sections, M3515 1:50, GaM-dex-PNA1 (209-149) + PNA2-dex-HRP (209-157), detection method 2.
Assay [12] concerns the target Human Cytokeratin (human). The experiment in a line: IHC on FFPE tonsil, primary 1:300, PNA based detection (GAM/dextran/PNA1 D12102 + HRP/dextran/PNA2 D12094); score 0 to 3+.
For assay [13], the target named is human BCL2 oncoprotein (human) (UniProt P10415). In words: IHC on multi-block FFPE tissue, primary 1:500, K5007 reference.
Assay [14] has the same target. In words: IHC on multi-block FFPE tissue, primary 1:500, PNA system (D12102 + D12094).
Assay [15] deals with Human CD20cy (human) (UniProt P11836). In words: IHC on multi-block FFPE tissue, primary 1:8000, K5007 reference.
Chain of UniProt P11836 (P11836 whole entry): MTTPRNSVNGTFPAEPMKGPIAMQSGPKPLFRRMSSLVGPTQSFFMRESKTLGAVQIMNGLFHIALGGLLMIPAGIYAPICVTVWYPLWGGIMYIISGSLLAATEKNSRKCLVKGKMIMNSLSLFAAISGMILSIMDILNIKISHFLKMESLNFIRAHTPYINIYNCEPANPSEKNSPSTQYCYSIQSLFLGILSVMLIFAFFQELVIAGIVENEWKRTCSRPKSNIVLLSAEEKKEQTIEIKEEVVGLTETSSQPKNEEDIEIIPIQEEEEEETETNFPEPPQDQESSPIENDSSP
The target is the same in assay [16]. The experiment in a line: IHC on FFPE tonsil, primary 1:8000, EnVision-based detection K5007.
For assay [17] the target is unchanged. The experiment in a line: IHC on FFPE tonsil, primary 1:2000, PNA based detection (D12102 + D12094).
Assay [18] has the same target. The experiment in a line: IHC on FFPE tonsil, primary 1:8000, PNA based detection (D12102 + D12094).
For assay [19] the target is unchanged. In words: IHC on FFPE tonsil, primary 1:14000, PNA based detection (D12102 + D12094).
Assay [20] shares this target. The experiment in a line: IHC on multi-block FFPE tissue, primary 1:8000, PNA system (D12102 + D12094).
For assay [21], the target named is Human CD45 LCA (human) (UniProt P08575). The experiment in a line: IHC on multi-block FFPE tissue, primary 1:1600, K5007 reference.
Assay [22] has the same target. The experiment in a line: IHC on multi-block FFPE tissue, primary 1:1600, PNA system (D12102 + D12094).
For assay [23], the target named is Human Desmin (human) (UniProt P17661). The experiment in a line: IHC on multi-block FFPE tissue, primary 1:1200, K5007 reference.
Chain of UniProt P17661 (P17661 2-470 limits assumed): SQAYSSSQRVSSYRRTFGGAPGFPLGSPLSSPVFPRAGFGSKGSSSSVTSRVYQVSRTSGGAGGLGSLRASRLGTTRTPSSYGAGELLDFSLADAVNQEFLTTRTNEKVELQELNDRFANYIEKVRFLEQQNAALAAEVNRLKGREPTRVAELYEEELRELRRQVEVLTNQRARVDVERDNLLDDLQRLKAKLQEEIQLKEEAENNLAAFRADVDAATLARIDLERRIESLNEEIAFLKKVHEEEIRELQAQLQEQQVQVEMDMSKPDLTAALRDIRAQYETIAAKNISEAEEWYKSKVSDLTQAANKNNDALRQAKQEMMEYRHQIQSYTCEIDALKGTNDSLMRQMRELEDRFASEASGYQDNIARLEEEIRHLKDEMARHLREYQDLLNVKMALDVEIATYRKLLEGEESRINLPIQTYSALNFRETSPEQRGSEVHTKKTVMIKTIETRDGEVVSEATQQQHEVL
The target is the same in assay [24]. In words: IHC on multi-block FFPE tissue, primary 1:1200, PNA system (D12102 + D12094).
Assay [25] concerns the target Human p27 (human) (UniProt P46527). In words: IHC on multi-block FFPE tissue, primary 1:400, K5007 reference.
Assay [26] shares this target. The experiment in a line: IHC on multi-block FFPE tissue, primary 1:400, PNA system (D12102 + D12094).
Assay [27] addresses Human Estrogen Receptor (human) (UniProt P03372). The experiment in a line: IHC on multi-block FFPE tissue, primary 1:200, K5007 reference.
Chain of UniProt P03372 (P03372 whole entry): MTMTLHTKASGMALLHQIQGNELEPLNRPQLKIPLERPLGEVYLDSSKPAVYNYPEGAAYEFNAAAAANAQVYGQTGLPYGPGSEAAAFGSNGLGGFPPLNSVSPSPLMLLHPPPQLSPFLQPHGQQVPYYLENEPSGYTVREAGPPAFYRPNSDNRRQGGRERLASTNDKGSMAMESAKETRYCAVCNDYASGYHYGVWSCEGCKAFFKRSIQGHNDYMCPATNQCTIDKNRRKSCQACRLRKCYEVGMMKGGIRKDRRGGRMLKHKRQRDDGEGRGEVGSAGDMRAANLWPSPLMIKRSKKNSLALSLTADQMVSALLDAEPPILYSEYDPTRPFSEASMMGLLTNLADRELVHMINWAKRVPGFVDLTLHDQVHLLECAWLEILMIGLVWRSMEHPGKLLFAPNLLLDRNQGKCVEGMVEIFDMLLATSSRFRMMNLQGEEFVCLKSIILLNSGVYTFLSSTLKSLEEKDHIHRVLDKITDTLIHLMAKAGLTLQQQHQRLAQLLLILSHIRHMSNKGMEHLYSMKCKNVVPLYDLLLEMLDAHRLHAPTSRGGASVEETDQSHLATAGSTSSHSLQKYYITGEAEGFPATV
The target is the same in assay [28]. In words: IHC on multi-block FFPE tissue, primary 1:200, PNA system (D12102 + D12094).
Assay [29] has as its target Human Epithelial Membrane Antigen (human) (UniProt P15941). The experiment in a line: IHC on multi-block FFPE tissue, primary 1:6400, K5007 reference.
The target is the same in assay [30]. In words: IHC on multi-block FFPE tissue, primary 1:6400, PNA system (D12102 + D12094).
A further assay has as its target Tonsil tissues. In words: IHC on FFPE tonsil, negative control IgG1 1:300, EnVision-based detection K5007.
In assay [31] the target is Human Ki-67 Antigen (human) (UniProt P46013). The experiment in a line: IHC on multi-block FFPE tissue, primary 1:1200, K5007 reference.
Chain of UniProt P46013 (P46013 whole entry): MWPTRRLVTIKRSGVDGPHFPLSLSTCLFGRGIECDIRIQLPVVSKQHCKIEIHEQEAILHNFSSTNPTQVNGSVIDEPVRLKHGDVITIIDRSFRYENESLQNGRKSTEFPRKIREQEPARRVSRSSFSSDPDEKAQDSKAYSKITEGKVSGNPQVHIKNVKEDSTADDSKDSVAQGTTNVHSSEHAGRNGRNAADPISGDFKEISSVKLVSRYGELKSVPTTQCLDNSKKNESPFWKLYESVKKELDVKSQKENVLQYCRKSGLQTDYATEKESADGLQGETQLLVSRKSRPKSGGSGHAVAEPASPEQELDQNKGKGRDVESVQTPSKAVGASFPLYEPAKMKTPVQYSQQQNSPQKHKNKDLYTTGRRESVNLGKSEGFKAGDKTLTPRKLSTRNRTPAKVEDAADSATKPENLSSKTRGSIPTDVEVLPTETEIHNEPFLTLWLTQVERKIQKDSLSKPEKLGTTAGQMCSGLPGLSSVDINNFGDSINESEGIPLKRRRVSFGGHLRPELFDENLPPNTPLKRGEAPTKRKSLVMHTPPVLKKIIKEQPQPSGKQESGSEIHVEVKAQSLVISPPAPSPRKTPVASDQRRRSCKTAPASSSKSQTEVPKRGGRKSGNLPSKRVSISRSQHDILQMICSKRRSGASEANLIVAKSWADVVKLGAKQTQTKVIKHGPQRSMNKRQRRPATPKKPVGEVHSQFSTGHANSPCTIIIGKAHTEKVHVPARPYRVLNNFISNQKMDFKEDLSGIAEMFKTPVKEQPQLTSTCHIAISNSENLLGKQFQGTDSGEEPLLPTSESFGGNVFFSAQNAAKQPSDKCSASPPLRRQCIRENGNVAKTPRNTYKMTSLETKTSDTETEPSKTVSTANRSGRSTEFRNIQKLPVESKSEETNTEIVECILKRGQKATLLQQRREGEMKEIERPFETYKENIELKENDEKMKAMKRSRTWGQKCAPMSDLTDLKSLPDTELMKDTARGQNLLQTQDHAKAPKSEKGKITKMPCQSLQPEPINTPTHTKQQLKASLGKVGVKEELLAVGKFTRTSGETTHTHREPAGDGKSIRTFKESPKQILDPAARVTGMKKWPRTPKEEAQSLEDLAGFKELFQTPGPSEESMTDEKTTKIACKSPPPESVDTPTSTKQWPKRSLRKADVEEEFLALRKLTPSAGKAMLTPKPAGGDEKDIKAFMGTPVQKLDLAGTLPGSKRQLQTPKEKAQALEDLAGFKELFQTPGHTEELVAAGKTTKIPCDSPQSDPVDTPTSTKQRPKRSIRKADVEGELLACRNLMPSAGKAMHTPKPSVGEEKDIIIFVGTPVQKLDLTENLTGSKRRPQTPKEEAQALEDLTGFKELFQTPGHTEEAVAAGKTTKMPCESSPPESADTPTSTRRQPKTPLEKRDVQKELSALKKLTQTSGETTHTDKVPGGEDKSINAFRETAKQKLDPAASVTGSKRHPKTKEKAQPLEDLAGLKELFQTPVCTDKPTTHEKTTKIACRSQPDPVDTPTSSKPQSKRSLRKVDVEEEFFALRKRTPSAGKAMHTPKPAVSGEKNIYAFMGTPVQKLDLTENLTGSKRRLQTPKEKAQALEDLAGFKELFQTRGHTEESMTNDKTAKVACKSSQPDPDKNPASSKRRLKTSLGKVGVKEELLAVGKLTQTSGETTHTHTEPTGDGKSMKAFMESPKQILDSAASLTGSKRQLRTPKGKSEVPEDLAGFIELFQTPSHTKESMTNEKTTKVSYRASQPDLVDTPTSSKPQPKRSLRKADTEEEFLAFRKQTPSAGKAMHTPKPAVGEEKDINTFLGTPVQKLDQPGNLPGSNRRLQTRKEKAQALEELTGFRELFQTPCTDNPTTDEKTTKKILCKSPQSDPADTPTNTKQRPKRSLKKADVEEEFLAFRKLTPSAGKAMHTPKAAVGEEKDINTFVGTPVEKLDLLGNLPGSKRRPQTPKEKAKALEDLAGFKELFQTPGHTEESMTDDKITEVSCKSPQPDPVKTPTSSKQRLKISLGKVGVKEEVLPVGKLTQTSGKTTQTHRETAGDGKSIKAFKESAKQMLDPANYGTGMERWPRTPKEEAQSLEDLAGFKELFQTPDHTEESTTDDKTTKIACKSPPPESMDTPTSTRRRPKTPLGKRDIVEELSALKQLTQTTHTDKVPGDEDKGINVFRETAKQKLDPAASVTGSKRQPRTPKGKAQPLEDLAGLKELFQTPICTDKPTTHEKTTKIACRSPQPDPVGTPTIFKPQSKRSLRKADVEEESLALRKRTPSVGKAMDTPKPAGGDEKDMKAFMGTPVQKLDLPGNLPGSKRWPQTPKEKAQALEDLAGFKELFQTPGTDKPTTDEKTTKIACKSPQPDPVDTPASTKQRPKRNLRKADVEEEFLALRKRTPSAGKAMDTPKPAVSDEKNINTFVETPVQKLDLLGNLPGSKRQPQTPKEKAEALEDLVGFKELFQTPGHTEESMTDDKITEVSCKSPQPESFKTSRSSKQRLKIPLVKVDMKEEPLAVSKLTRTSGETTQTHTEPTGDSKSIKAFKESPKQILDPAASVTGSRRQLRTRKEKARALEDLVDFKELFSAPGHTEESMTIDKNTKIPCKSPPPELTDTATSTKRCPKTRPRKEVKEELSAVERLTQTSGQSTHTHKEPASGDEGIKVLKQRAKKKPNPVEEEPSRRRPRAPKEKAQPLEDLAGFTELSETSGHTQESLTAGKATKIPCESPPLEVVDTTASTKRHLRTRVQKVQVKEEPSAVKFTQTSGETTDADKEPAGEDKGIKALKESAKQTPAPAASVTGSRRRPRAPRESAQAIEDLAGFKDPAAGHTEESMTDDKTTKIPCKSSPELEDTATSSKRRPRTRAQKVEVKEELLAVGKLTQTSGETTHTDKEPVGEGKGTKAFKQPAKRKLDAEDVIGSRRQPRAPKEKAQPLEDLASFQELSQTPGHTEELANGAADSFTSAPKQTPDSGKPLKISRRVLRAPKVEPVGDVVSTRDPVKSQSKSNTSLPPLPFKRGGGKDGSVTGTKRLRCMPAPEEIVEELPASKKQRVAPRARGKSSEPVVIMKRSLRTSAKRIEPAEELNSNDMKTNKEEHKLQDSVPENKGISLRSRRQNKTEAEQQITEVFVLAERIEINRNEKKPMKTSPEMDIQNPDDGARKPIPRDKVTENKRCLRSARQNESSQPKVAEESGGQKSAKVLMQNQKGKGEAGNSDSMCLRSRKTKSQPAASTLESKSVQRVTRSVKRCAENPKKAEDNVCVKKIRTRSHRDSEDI
Assay [32] has the same target. The experiment in a line: IHC on FFPE tonsil, primary 1:1200, EnVision-based detection K5007.
The target is the same in assay [33]. In words: IHC on FFPE tonsil, primary 1:400, PNA based detection (D12102 + D12094).
For assay [34] the target is unchanged. The experiment in a line: IHC on FFPE tonsil, primary 1:1200, PNA based detection (D12102 + D12094).
Assay [35] has the same target. In words: IHC on FFPE tonsil, primary 1:2400, PNA based detection (D12102 + D12094).
The target is the same in assay [36]. The experiment in a line: IHC on multi-block FFPE tissue, primary 1:1200, PNA system (D12102 + D12094).
Assay [37] shares this target. In words: IHC on multi tissue section, M7240 1:150, 3-layer PNA system with HRP, DAB+.
For assay [38] the target is unchanged. In words: Double IHC on multi tissue sections, M7240 1:150, 3-layer PNA system with AP.
Assay [39] shares this target. The experiment in a line: Double IHC on multi tissue sections, M7240 1:150, 3-layer PNA system with HRP, detection method 1.
The target is the same in assay [40]. In words: Double IHC on multi tissue sections, M7240 1:150, 3-layer PNA system with HRP, detection method 2.
For assay [41] the target is unchanged. In words: IHC on multi tissue section, M7240 1:150, 3-layer PNA system with AP / Permanent Red; first of two scores, taken as the specific one.

Chain of UniProt P34810 (P34810 22-354 limits assumed): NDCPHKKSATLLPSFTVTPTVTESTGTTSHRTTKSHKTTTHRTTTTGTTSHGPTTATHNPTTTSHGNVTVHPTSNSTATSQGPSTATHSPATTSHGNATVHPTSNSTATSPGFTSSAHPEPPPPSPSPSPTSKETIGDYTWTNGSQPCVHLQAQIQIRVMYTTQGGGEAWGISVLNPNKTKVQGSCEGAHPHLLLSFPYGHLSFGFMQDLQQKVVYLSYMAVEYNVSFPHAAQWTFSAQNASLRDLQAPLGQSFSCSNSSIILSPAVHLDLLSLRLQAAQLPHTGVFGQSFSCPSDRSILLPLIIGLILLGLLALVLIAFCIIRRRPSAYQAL

Turning to “Monoclonal Mouse Anti-Human CD68 (DakoCytomation code No. M0876) (antibody)”, the Specific staining intensity with Human CD68 (human) [1] and with Human CD68 (human) [2] was 2 score in each case.
Take “K5007 GaM:HRP complex (ChemMate EnVision Detection kit Rabbit/Mouse, DakoCytomation code No. K5007 bottle A) (antibody)”: in assay [3], the Specific staining intensity with K5007 turned out to be 3 score.
In the case of “Monoclonal Mouse Anti-Human Cytokeratin (DakoCytomation code No. M3515) (antibody)”, the Specific staining intensity in [4] is 1.5 score; in assay [5], 2 score; in [6], 2.5 score; in assay [7] it was 1.5 score; in [8], 2 score; in [12] it was 3 score. The specific staining turned out to be 3 score in assay [9], 2.5 score in [10] and 3 score in [11].
For “mouse anti-human BCL2 oncoprotein, Clone 124 (DakoCytomation code No. M0887) (antibody)”, the Specific staining intensity in assay [13] and in assay [14] was 2 score each time.
For “Monoclonal Mouse Anti-Human CD20cy (DakoCytomation code No. M0755) (antibody)”, the Specific staining intensity amounted to 1.5 score with Human CD20cy (human) [15]; 2 score in the assay with Human CD20cy (human) [16]; 3 score with Human CD20cy (human) [17]; 2.5 score with Human CD20cy (human) [18]; 1.5 score in the assay with Human CD20cy (human) [19]; 1.5 score with Human CD20cy (human) [20].
As to “Monoclonal Mouse Anti-Human CD45 LCA (DakoCytomation code No. M0701) (antibody)”, the Specific staining intensity with Human CD45 LCA (human) [21] came to 2 score; with Human CD45 LCA (human) [22] it was 3 score.
For “Monoclonal Mouse Anti-Human Desmin (DakoCytomation code No. M0760) (antibody)”, the Specific staining intensity with Human Desmin (human) [23] and in the assay with Human Desmin (human) [24] was 1.5 score in each case.
Turning to “Monoclonal Mouse Anti-Human p27 (DakoCytomation code No. M7203) (antibody)”, the figures for the Specific staining intensity with Human p27 (human) [25] and with Human p27 (human) [26] were 1.5 score and 2.5 score, respectively.
As to “Monoclonal Mouse Anti-Human Estrogen Receptor (DakoCytomation code No. M7047) (antibody)”, the Specific staining intensity in [27] stood at 2.5 score; in [28], 3 score.
Take “Monoclonal Mouse Anti-Human Epithelial Membrane Antigen (DakoCytomation code No. M0613) (antibody)”: the Specific staining intensity in assay [29] is 1.5 score; in assay [30] it was 2.5 score.
In the case of “mouse IgG1 negative control (DakoCytomation code No. X0931) (antibody)”, the Specific staining intensity with Tonsil tissues was 0 score.
Take “Monoclonal Mouse Anti-Human Ki-67 Antigen (DakoCytomation code No. M7240) (antibody)”: the Specific staining intensity is 1.5 score in assay [31]; 2 score in [32]; 3 score in [33]; 2.5 score in [34]; 1.5 score in [35]; 2 score in [36]. The Staining intensity score in [37] was determined as 2.5. Further, the figures for the specific staining in assay [38], in assay [39] and in assay [40] were 2 score, 1.5 score and 1.5 score, respectively. Moreover, in [41], the staining score was 1.
